What all share (assay): ITC
One experiment addresses T1, MLL3 ePHD6 I1100L (human, UniProt Q8NEZ4 1055-1144, I1100 of MLL3 to leucine).
T1 sequence: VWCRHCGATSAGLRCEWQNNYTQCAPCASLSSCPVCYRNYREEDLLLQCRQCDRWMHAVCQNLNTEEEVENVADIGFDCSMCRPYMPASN

For a further experiment, the target named is T2, MLL4_(ePHD6)_(1475–1564) (human, UniProt O14686 1475-1564).
T2 chain: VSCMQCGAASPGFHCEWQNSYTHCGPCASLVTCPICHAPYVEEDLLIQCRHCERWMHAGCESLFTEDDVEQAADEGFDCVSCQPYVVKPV

The next experiment has as its target T3, MLL3_(ePHD6)_(1055–1144) (human, UniProt Q8NEZ4 1055-1144).
T3 chain: T1 sequence with L46I

For the next experiment, the target named is T4, MLL3 ePHD6 E1097A (human, UniProt Q8NEZ4 1055-1144, E1097A).
T4 sequence: T1 sequence with E43A, L46I

Numbering of substitutions follows the chain as printed. Where no end group is shown, it is not given here. [ ]: non-standard residue; d: D form. Lys(Me3) = C[N+](C)(C)CCCC[C@H](N)C(=O)O; Arg(Me) = CNC(=N)NCCC[C@H](N)C(=O)O

In general, Kd refers to a measure of binding affinity in units of concentration. GKGGA[Lys(Me3)]RHRKV [H4K16me3 peptide]: the Kd with MLL3 ePHD6 I1100L was found to be 34 µM; in the experiment with MLL4_(ePHD6)_(1475–1564), 14 µM. As to GKGGAK[Arg(Me)]HRKV [histone H4 peptide monomethylated at R17], the Kd is 70 µM with MLL4_(ePHD6)_(1475–1564) and 113 µM in the experiment with MLL3_(ePHD6)_(1055–1144). Turning to GKGGAKRHRKV [histone H4 peptide H4_(11–21)], the Kd in the experiment with MLL3 ePHD6 E1097A is 65 µM.
